# Assay: yeast display, Sf9 membrane polyspecificity reagent, FACS + sequencing; frameworks hold sequencing errors
# Summary of the method: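 Nanobodies from a synthetic yeast display library (Saccharomyces cerevisiae BJ5465), induced 36–48 hours with galactose, were stained 1 hour at 4 °C with 10% biotinylated, detergent-solubilized Sf9 membrane reagent, enriched on streptavidin microbeads, then FACS-sorted. Anti-HA (expression) and streptavidin (reagent binding) fluorescence set low and high (top ~1%) gates. Polyreactivity labels come from the gate of origin. Genes were colony-PCR amplified, MiSeq 2 × 250 sequenced and filtered by CDR length.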
row,Sequence,polyreactivity (PSR sort gate)
1,QVQLVESGGGLVQAGGSLRLSCAASGRIFRSIAMGWYRQSPGKERELVAVINSDDSTYYADSVKGRFTISRDNAKNTVYLQMNSLKPEDTAVYYCAAEPQYTRHMDSWGQGTQVTVSS,low polyreactivity
2,QVQLVESGGGLVQAGGSLRLSCAASGRIFRSNAMGWYRQAPGKERELVATITRSGGSTYYADSVKGRFTISRDNAKNTVYLQMNSLKPEDTAVYYCNAVFGSAYRAQRIMGYWGQGTQVTVSS,high polyreactivity
3,QVQLVESGGGLVQAGGSLRLSCAASGRIFRSNAMGWYRQSPGKESELVAAITWRGRTYYADSVKGRFTISRDNAKNTVYLQMNSLKPEDTAVYYCNAYVRYGYDYWGHGTQVTVSS,high polyreactivity
4,QVQLVESGGGLVQAGGSLRLSCAASGRIFRSYVMGWYRQAPGKERELVAVISKNGGTTYYADSVKGRFTISRDNAKNTVYFQRNSLKPEDTAVYYCAARRLGYYRKVKELDYWGQGTQVTVSS,high polyreactivity
5,QVQLVESGGGLVQAGGSLRLSCAASGRIFRTNAMGWYRQAPGKEREFVAAISKDGGRTYYADSVKGRFTISRDNAKNTVYLQMNSLKPEDTAVYYCNVLVKHSTTTYSTYDYWGQGTQVTVSS,high polyreactivity
6,QVQLVESGGGLVQAGGSLRLSCAASGRIFRTYAMGWYRQAPGKERELVAAITWSGGSTYYADSVKGRFTISRDNAKNTVYLQMNSLKPEDTAVYYCNALTPGYRIYDYWGQGTQVTVSS,high polyreactivity
7,QVQLVESGGGLVQAGGSLRLSCAASGRIFRTYAMGWYRQAPGKERELVAGITWRGTSTYYADYVKGRFTISRDNAKNTVYLQLNSLKPEDTAVYYCAAEWKGYYVHDYWGQGTQVTVSS,high polyreactivity
8,QVQLVESGGGLVQAGGSLRLSCAASGRIFRVYAMGWYRQAPGKERELVAAIRWTGGSTYYADSVKGRFKISRDNAKNTVYLQMNSLKPEDTAVYYCAAGRYYSDGSRTIYDYWGQGTQVTVSS,low polyreactivity
9,QVQLVESGGGLVQAGGSLRLSCAASGRIFRVYTMGWYIQAPGKERELVAAISRGGTTTYADSVKGRFTISRDNAKNTVYLQMNSLKPEYTAVYYCNARGWFRGEFDYWGQGTQVTVSS,high polyreactivity
10,QVQLVESGGGLVQAGGSLRLSCAASGRIFRWYAMGWYRQAPGKERELVASISSGGSTNYADSVKGRFTISRDNAKNTVYLQLNSLKPEDTAVYYCAADFATPGPAYDYWGEGTQVTVSS,low polyreactivity
11,QVQLVESGGGLVQAGGSLRLSCAASGRIFRWYAMGWYRQAPGKERELVASITWNGGSTYYADSVKGRFTISRDNAKNTVYLQMNSLKPEDTAVYYCAVAFYRGPEMGYWGQGTQVTVSS,high polyreactivity
12,QVQLVESGGGLVQAGGSLRLSCAASGRIFRWYAMGWYRQAPGKERELVATITRSGGSTYCADSVKGRFTISRDNAKNTVYLQMNSLKPEDTAVYYCAARWRLTPSWLPYVQSSAGYDYWGQGTQVTVSS,high polyreactivity
13,QVQLVESGGGLVQAGGSLRLSCAASGRIFRWYPMGWYRQAPGKESELDATISSTGGSTYYADSVKGRFTISRDNAKNTVYIQMNSLKPEVTAVYYCNAVVYGIFLYAWYDYWGQGTQVTVSS,low polyreactivity
14,QVQLVESGGGLVQAGGSLRLSCAASGRIFRWYTMGWYRQAPGKEREFVAAITWSDTSTSYADSVKGPFTISRDNAKNTVYLQMNSLKPEDTAVYYCAAPTHLHGHGNQNEFYYWGQGTQVTVSS,low polyreactivity
15,QVQLVESGGGLVQAGGSLRLSCAASGRIFRYNAMGWYRQAPGKERELVAAISQSGGSTYYADSVKGRFTISRDNAMNTVYLQMNSLKPEDTAVYYCGADNYFLGDEDYWGQGTQGTVSS,high polyreactivity
16,QVQLVESGGGLVQAGGSLRLSCAASGRIFRYNAMGWYRQAPGKERELVAAISRGGSSTYYADSVKGRFTISRDNAKNTVYLQMNSLKPEDTAVYYCNARSVVREFNYWGQGTQVTVSS,high polyreactivity
17,QVQLVESGGGLVQAGGSLRLSCAASGRIFRYNAMGWYRQAPGKERELVAAISWSGGSTYYADSVKGRFTISRDNAKNTVYLQMNSLKPEDTAVYYCNARYRYSVTGYDYWGQGTQVTVSS,high polyreactivity
18,QVQLVESGGGLVQAGGSLRLSCAASGRIFRYNAMGWYRQAPGKERELVAAITNGGSTNYADSVKGRFTISRDNAKNTVYLQMNSLKPEDTAVYYCAAEGNGYLVSTWWVRYEYWGQGTQVTVSS,low polyreactivity
19,QVQLVESGGGLVQAGGSLRLSCAASGRIFRYYAMGWFRQAPGKERELVASISRRGGSTNYADSVKGRFTISRDNAKNTVDLQMNSLKPEDTAVYYCNAENSSPRGLYNYWGQGTQVTVSS,high polyreactivity
20,QVQLVESGGGLVQAGGSLRLSCAASGRIFRYYAMGWSRQAPGKERELVADISRRGGSTYYADSVKGRFTISRDNAKNTVYLQMNSLKPEDTAVYYCNARWYRTGSTYHEDYWGQGTQVTLSS,high polyreactivity
21,QVQLVESGGGLVQAGGSLRLSCAASGRIFRYYAMGWYRQAPGKERELVAAISSGGSTYYADSVKGRFTISRDNAKNTVYLQMNSLKQEDTAVYYCAADRRYSYNWGHGTQVTVSS,high polyreactivity
22,QVQLVESGGGLVQAGGSLRLSCAASGRIFRYYAMGWYRQAPGKERELVAAISSSGGSTYYADSVKGRFTISRDNAKNTVDLQMNSLKPEDTAVYYCAAKYSRRSSVSYYYWGQGTQVTVSS,high polyreactivity

row,Sequence,polyreactivity (PSR sort gate)
1,QVQLVESGGGLVQAGGSLRLSCAASGRIFRYYAMGWYRQAPGKERELVAAISYSTGGTYYADSVKGRFTISRDNAKNTVYLQMNSLIPEDTAVYYCAARGPLDRYGYWGQGTQVTVSS,high polyreactivity
2,QVQLVESGGGLVQAGGSLRLSCAASGRIFRYYAMGWYRQAPGKERELVAAITRGGSTNYADSVKGRFTISRDNAKNTVYLLMNSLKPEVTAVDYCNAPYWKSRFRAYYHWGQGTQVTVSS,high polyreactivity
3,QVQLVESGGGLVQAGGSLRLSCAASGRIFRYYAMGWYRQAPGKERELVAAITRGGSTNYADSVKGRFTISRDNAKNTVYLQMNSLKPEDSAVFYCATRESCYPRWMDYWGQGTQVTVSS,high polyreactivity
4,QVQLVESGGGLVQAGGSLRLSCAASGRIFRYYAMGWYRQAPGKERELVARITSGGSTYYADSVKGRFTLSRDNAKNTVYLQMNSLKPEDTAVYYCAAETTRWHPWYDYWGQGTQVTVSS,high polyreactivity
5,QVQLVESGGGLVQAGGSLRLSCAASGRIFRYYAMGWYRQAPGKERELVASIARRGGSTNYADSVKGRFTISRDNAKNTVYVQMNSLKPEDTAVYYINAENWSPRGLYNYWGQGTQVTLSS,high polyreactivity
6,QVQLVESGGGLVQAGGSLRLSCAASGRIFRYYAMGWYRQAPGKERELVATISRSGGSTFYADSVKGRFTISRDNGKNPVYLQMNSLKPEDSAVYYCNARYQTGCYGYWGQGTQVTVSS,high polyreactivity
7,QVQLVESGGGLVQAGGSLRLSCAASGRIFRYYAMGWYRQAPGKESELVAAINSGGSTKYADSVKGRFTISRDNAKNTVYLQMNSLKPEDTAVYYCNKDHAFSRYWYGGFDYWGQGTQVTVSS,high polyreactivity
8,QVQLVESGGGLVQAGGSLRLSCAASGRIFRYYAMGWYRQAPGKESELVAAITASGGSTYYADSVKGRFTISRDNAKNTVYLQMNSLKPEDTAVYYCATEYVVYRSWVPKYGYWGQGTQVTVSS,high polyreactivity
9,QVQLVESGGGLVQAGGSLRLSCAASGRIFRYYAMGWYRQAPPKERELVAAIRWSGGRTYYADSVKGRFTISRDNAKNTVYLQMNSLKPEDTAVYYCAADSPYKMDYWGQGTQVTVSS,high polyreactivity
10,QVQLVESGGGLVQAGGSLRLSCAASGRIFRYYAMGWYRQATGKERELVAAISRSGGSTYYADSVKGRFTISRDNAKNTVYLQMNSLKPEDTAVYYCNAQWRSTDPYPPGYDYWGQGTQVTVSS,high polyreactivity
11,QVQLVESGGGLVQAGGSLRLSCAASGRIFRYYPMGWYRQATGKERELVAAITASGGSTYYADSVKGRFTISRDNAKNTVYLQMNSLKPEDTAVYYCAARVAQVAYPDGYWGQGTQVTVSS,high polyreactivity
12,QVQLVESGGGLVQAGGSLRLSCAASGRIFRYYTMGWYRQAPGKERELVAAISGRGGRTYYADSVKGRFTISRDNAKNTVYLQMNSLKPEDTAVYYCNAYDHPIYRLDYWGQGTQVTVSS,high polyreactivity
13,QVQLVESGGGLVQAGGSLRLSCAASGRIFSANAMGWYRQAPRKERELVAGIDSGGSTNYADSVKGRFTISRDNSKNTVYLQMNSLKPEDTAVYYCNAEDHKYEYDSWGQGTQVTVSS,low polyreactivity
14,QVQLVESGGGLVQAGGSLRLSCAASGRIFSAYAIGCYRQSPWKERELVSAISRSGGRTYYADSVKGSFTISRDNAKNTVYLQMNSLKPEDTAVYYCAAARFAIVRGDYCGQGTQVTVSS,high polyreactivity
15,QVQLVESGGGLVQAGGSLRLSCAASGRIFSAYAMGLYRQAPGKERELVAAITSVGSTKYADSVKGRFTISRDNAKNTVYLQMNSLIPEDTAVYYCAAEYTRSFYIYYRFGYWGQGTQVTVSS,high polyreactivity
16,QVQLVESGGGLVQAGGSLRLSCAASGRIFSAYAMGWYRQAPGKERELVAAISRSRGRTYYADSVKGRVTISRDNAKNTVYLQMNSLKPEDTAVYYCAAARFAIVRGDYWGQGTQVTVSS,high polyreactivity
17,QVQLVESGGGLVQAGGSLRLSCAASGRIFSAYAMGWYRQAPGKERELVAANSRSGGRTYYADSVKGRFTISRDNAKNTVYLQMNSLKPDDTAVYYCAVLWHGRRPLYKLRTGPEYDYWGQGTQVTVSS,high polyreactivity
18,QVQLVESGGGLVQAGGSLRLSCAASGRIFSDYAMGWYRQAPGKERELVATITSGDSTNYEDSVKGRFTISRDNAKNTVYLQMNSLKPVDTAVYYCIADRYADYDYWGQGTQVTVSS,low polyreactivity
19,QVQLVESGGGLVQAGGSLRLSCAASGRIFSFNAMGRYRQAPGKERELVAAITWRGGSTYYADSVKGRFTISRDNAKNTVYLQMNSLKPEDTAVYYCNAYPFWRDYDYWGQGTQVTVSS,high polyreactivity
20,QVQLVESGGGLVQAGGSLRLSCAASGRIFSFNAMGWYRQAPGKERELVATIRTDGTTNYADSVKGRFTISRDNAKNTVYLQMNSLKPEDTAVYYCAANRKRFAFGYWGQGTQVTVSS,high polyreactivity
21,QVQLVESGGGLVQAGGSLRLSCAASGRIFSFYTMGWYRQAPGKERELVAAISGSGGSTYYADSVKGRFTISRDNANNTFYLQMNSLKPEDTAVYYCAAGYGFRYYLYDYWGQGTQVTVSS,high polyreactivity
